Experimental data published in patent US20150071950A1 (SAMSUNG ELECTRONICS, published 2015).
Each block holds one binder with its values, some of them ahead of it.

Assays:
[1] = biological target: T1, human c-Met/Fc fusion protein (R&D Systems) (human, UniProt P08581 25-932); experiment: ELISA, hybridoma culture on plate-coated human c-Met/Fc fusion protein
T1 construct: Bought protein; also called c-Met-Fc (#358-MT/CF, R&D Systems); human c-Met/Fc protein; not shown: Fc part of the bought fusion protein
T1 sequence (P08581 25-932 limits assumed): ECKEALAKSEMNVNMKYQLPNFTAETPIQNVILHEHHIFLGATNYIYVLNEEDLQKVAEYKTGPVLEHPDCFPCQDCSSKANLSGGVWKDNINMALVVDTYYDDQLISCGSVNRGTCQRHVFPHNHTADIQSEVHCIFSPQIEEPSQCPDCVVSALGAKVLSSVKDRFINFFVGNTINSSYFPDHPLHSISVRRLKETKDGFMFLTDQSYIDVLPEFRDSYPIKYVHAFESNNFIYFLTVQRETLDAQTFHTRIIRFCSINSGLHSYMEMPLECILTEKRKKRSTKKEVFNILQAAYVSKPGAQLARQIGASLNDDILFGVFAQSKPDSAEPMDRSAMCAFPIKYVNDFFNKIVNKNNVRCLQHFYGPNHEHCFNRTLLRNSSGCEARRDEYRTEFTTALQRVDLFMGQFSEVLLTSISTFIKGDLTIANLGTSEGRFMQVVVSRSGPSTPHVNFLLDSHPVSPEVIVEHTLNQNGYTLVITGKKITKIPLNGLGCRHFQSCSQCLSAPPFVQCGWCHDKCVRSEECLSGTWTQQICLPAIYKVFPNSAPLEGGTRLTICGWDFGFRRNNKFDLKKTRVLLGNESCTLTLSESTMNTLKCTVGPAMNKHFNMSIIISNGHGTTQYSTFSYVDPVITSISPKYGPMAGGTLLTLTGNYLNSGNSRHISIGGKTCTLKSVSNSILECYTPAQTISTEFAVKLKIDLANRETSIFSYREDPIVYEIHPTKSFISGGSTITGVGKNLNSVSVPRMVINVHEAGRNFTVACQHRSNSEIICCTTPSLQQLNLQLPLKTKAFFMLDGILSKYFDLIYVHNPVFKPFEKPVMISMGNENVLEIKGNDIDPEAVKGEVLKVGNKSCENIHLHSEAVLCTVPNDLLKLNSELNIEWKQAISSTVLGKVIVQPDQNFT
Procedure: The hybridoma cell culture obtained in Reference Example 1.1.2 was added in an amount of 50 μL to each well of the plates and incubated for 1 hour. The cells remaining unreacted were washed out with a sufficient amount of Tris-buffered saline and Tween 20 (TBST). Goat anti-mouse IgG-horseradish peroxidase (HRP) was added to the plates and incubated for 1 hour at room temperature. The plates were washed with a sufficient amount of TBST, followed by reacting the peroxidase with a substrate (OPD). Absorbance at 450 nm was measured on an ELISA reader.

[2] = biological target: T1, human c-Met/Fc fusion protein (R&D …); experiment: SPR, Biacore T100; antibody captured by human Fab capture on CM5 chip, c-Met-Fc as analyte
Procedure: (§1) An examination was made to see whether the antibody-drug conjugates maintain affinity for the antigen.
(§2) Briefly, a human Fab capture (GE Healthcare) was immobilized on CM5 chip (#BR-1005-30, GE) according to the manufacturer's instruction. […] The chip was regenerated with 10 mM Glycine-HCl (pH 1.5). To quantify the affinity, the data obtained above was fitted using BIAevaluation software (GE Healthcare, Biacore T100 evaluation software).

[3] = biological target: T1, human c-Met/Fc fusion protein (R&D …); experiment: SPR, Biacore T100; ADC captured by human Fab capture on CM5 chip, c-Met-Fc as analyte
Procedure: as §1, §2

- binding result [1]: binds
B1: AbF46, mouse monoclonal antibody to c-Met (hybridoma KCLRF-BP-00220) (antibody, V domains shown)
VH: EVKLVESGGGLVQPGGSLRLSCATSGFTFTDYYMSWVRQPPGKALEWLGFIRNKANGYTTEYSASVKGRFTISRDNSQSILYLQMDTLRAEDSATYYCARDNWFAYWGQGTLVTVSA
VL: DILMTQSPSSLTVSAGEKVTMSCKSSQSLLASGNQNNYLAWHQQKPGRSPKMLIIWASTRVSGVPDRFIGSGSGTDFTLTINSVQAEDLAVYYCQQSYSAPLTFGAGTKLELK
notes: Tested as hybridoma culture supernatant in the selection ELISA; also called mouse antibody AbF46

- Kd [2]: 0.058 nM
- koff [2]: 3.42e-05 s⁻¹
- kon [2]: 589000 M⁻¹ s⁻¹
B2: anti-c-Met antibody L3-1Y/IgG2 (antibody, V domains shown)
VH: EVQLVESGGGLVQPGGSLRLSCAASGFTFTDYYMSWVRQAPGKGLEWLGFIRNKANGYTTEYSASVKGRFTISRDNSKNTLYLQMNSLRAEDTAVYYCARDNWFAYWGQGTLVTVSS
VL: DIQMTQSPSSLSASVGDRVTITCKSSQSLLASGNQNNYLAWYQQKPGKAPKMLIIWASTRVSGVPSRFSGSGSGTDFTLTISSLQPEDFATYYCQQSYSRPYTFGQGTKVEIKR
notes: also called huAbF46-H4-A1 (IgG2 Fc)

- Kd [3]: 0.0998 nM
- koff [3]: 3.63e-05 s⁻¹
- kon [3]: 364000 M⁻¹ s⁻¹
B3: antibody-drug conjugate ADC1 (L3-1Y/IgG2 conjugated with docetaxel by amine coupling, feed molar ratio 5; DAR 3.7) (antibody, V domains shown)
VH: B2 VH
VL: B2 VL
modifications: docetaxel-succinate (NHS-DTX) coupled to primary amines of lysine residues; sites not stated; DAR 3.7 for the whole antibody
notes: also called ADC (DAR 3.7)
